Series [1] addresses T1, Mcm10 (Saccharomyces cerevisiae, UniProt P32354 1-571).
T1 sequence: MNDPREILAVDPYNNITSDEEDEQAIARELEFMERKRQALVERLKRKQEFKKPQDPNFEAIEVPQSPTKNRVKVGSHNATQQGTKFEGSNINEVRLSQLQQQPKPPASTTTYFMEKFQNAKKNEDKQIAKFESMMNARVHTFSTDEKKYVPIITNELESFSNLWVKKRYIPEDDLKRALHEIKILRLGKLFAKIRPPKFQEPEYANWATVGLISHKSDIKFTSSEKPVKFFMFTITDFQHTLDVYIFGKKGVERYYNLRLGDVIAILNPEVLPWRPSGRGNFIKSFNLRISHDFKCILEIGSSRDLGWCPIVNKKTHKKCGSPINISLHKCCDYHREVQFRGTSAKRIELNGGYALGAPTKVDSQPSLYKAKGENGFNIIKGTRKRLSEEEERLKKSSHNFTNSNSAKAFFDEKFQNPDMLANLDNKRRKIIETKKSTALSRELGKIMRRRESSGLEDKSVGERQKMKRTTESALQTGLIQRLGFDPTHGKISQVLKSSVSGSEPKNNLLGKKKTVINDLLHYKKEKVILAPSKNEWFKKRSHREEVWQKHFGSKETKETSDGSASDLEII
The experiment in a line: fluorescence anisotropy.

The target in series [2] is RPA (Saccharomyces cerevisiae, UniProt P22336;P26754;P26755 1-621;1-273;1-122). The series can be described thus: EMSA.
Chain of RPA (P22336 whole entry, chain 1 of 3): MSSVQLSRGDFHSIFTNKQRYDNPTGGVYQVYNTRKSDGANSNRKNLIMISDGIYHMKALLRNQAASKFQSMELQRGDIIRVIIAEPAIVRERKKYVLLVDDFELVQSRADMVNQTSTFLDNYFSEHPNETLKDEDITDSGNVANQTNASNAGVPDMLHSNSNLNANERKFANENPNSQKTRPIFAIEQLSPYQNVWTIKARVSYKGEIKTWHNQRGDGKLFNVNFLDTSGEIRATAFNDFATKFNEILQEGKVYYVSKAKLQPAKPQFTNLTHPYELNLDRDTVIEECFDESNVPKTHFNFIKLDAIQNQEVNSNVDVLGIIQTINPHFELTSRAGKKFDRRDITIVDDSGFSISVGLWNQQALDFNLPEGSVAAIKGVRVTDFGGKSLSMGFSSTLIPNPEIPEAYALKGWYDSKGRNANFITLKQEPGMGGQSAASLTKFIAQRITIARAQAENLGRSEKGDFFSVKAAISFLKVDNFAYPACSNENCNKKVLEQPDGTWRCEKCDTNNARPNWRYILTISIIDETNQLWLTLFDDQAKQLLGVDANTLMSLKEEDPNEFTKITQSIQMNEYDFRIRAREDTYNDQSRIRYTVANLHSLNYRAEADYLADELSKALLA
Chain of RPA (P26754 whole entry, chain 2 of 3): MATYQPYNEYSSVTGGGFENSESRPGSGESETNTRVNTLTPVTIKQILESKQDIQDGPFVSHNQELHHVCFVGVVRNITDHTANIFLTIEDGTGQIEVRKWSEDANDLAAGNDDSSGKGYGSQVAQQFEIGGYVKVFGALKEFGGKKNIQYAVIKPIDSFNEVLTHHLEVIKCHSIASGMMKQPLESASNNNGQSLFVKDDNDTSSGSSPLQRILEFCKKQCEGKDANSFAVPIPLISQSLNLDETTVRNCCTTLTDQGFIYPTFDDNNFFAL
Chain of RPA (P26755 whole entry, chain 3 of 3): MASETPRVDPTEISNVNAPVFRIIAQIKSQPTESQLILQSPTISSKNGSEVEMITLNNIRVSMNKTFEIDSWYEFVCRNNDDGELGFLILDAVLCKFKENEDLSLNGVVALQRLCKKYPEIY

B1: 3' FITC 60mer ssDNA (ssDNA)
DNA: TTTTTTTTTTTTTTTTTTTTTTTTTTTTTTGGTGAGGGTTGGGAAGTGGAAGGATGGGCT
B1: in series [1], the Kd stood at 50 nM.

B2: 5' flap lagging strand oligo (ssDNA)
DNA: TTTTTTTTTTTTTTTTTTTTTTTTTTTTTTTTTTTTTTTTTTTTTTTTTGACGCTGCCGAATTCTGGCTTGCTAGGACATTACAGGATCGTTCGGTCTC
modifications: last 5 linkages at 3' end thiodiester (phosphorothioate)
In the case of B2, the binding result in series [2] was “binds”.

The values above are taken from article PMC6338834.
